{
  "source": "patent US20100286027A1",
  "about": "“ANTI-BACTERIAL COMPOSITIONS” (priority 2008, published 2010)",
  "key": {"[1]": {"tested_on": "Peptostreptococcus anaerobius NB97001", "assay": "MIC against anaerobic bacteria", "assay_type": "cell-based"}, "[2]": {"tested_on": "Streptococcus pneumoniae (ATCC 49619)", "assay": "Gentamycin protection assay in stable 293 cell lines", "details": "293 cells stably expressing the protein, infected with S. pneumoniae at MOI 10:1, versus control cells"}, "[3]": {"tested_on": "Streptococcus pneumoniae (49619)", "assay": "BacTiter-Glo bacterial ATP content viability assay", "details": "gram +, +/− SD, n = 3, >100 = activity detected but <50% inhibition"}, "[4]": {"tested_on": "Enterococcus faecalis (29212)", "assay": "BacTiter-Glo bacterial ATP content viability assay", "details": "Enterococcus faecalis (29212), gram +; +/− SD, n = 3; >100 = activity detected but <50% inhibition"}, "[5]": {"tested_on": "lawn of the indicated bacteria", "assay": "Agar diffusion assay", "details": "FIG. 11 Panel D; 0.5 mg/ml in sterile PBS per well"}, "porins (OmpC and OmpF)": {"tested_on": "porins (OmpC and OmpF)", "assay": "LRR domain affinity column and mass spectrometry protein identification", "details": "guanidinium HCl extract of detergent-insoluble E. coli fraction; SDS-PAGE, mass spectrometry"}, "Staphylococcus aureus": {"tested_on": "Staphylococcus aureus", "assay": "Competition assay of Nod2 LRR activity against S. aureus", "assay_type": "cell-based", "details": "then live S. aureus", "description": "FIG. 6: Purified Nod2 LRR domains (Nod2: 30 microgram/ml) were preincubated with 200 microgram/ml of the indicated bacterial component prior to addition to Staphylococcus aureus. BSA was added as a protein control. Commercial […] extracts (sPGN: soluble […], iPGN: insoluble proteoglycan), lipoteichoic acid (LTA: crude lipoteichoic acid extract, upLTA: ultrapure lipoteichoic acid extract), or heat-killed S. aureus (HKSA) were used. Control indicates bacterial growth in the presence of BSA only.\nIf this interaction was the initiating factor for the Nod2 LRR antimicrobial effects, preincubating the domains with bacterial components containing this motif would be expected to inhibit the antibacterial activity. A competition assay was set up using Nod2 LRR activity against S. aureus. The recombinant LRR domains or BSA (control) were preincubated with various components of the S. aureus membrane prior to addition to live S. aureus and the bacterial viability assessed as in Table 1 above (FIG. 6)."}},
  "data": [
    {"molecule": "Nod2: purified recombinant LRR domain of Nod2 expressed in E. coli; human NOD2-LRR is SEQ ID NO: 3; ~30000 da (protein, listed as Homo sapiens, purified recombinant LRR domain of Nod2 expressed in E. coli; ~30000 da) PAAPGEAKSVHAMPGFIWLIRSLYEMQEERLARKAARGLNVGHLKLTFCSVGPTECAALAFVLQHLRRPVALQLDYNSVGDIGVEQLLPCLGVCKALYLRDNNISDRGICKLIECALHCEQLQKLALFNNKLTDGCAHSMAKLLACRQNFLALRLGNNYITAAGAQVLAEGLRGNTSLQFLGFWGNRVGDEGAQALAEALGDHQSLRWLSLVGNNIGSVGAQALALMLAKNVMLEELCLEENHLQDEGVCSLAEGLKKNSSLKILKLSNNCITYLGAEALLQALERNDTILEVWLRGNTFSLEEVDKLGCRDTRLLL", "values": [
      {"measurement": "minimal inhibitory concentration (MIC)", "setting": "[1]", "value": 2, "unit": "microgram/ml"},
      {"measurement": "number of gentamycin-protected intracellular bacteria", "setting": "[2]", "value": "drastically reduced"},
      {"measurement": "antibacterial activity by bacterial ATP content (IC50), [LRR domain]", "setting": "[3]", "value": "3.0 +/− 1.6 microgram/ml"},
      {"measurement": "antibacterial activity by bacterial ATP content (IC50), [LRR domain]", "setting": "[4]", "value": "6.8 +/− 1.6 microgram/ml"},
      {"measurement": "anti-bacterial activity by agar diffusion assay", "setting": "[5]", "value": "Anti-bacterial activity"},
      {"measurement": "porins (OmpC and OmpF) identified in eluate of LRR affinity column", "setting": "porins (OmpC and OmpF)", "value": "specifically identified in the eluate"},
      {"measurement": "inhibition of antibacterial effect by preincubation with heat-killed S. aureus", "setting": "Staphylococcus aureus; Nod2 30 microgram/ml preincubated with 200 microgram/ml HKSA", "value": "Only heat-killed S. aureus was capable of inhibiting"},
      {"measurement": "inhibition of antibacterial effect by preincubation with proteoglycan or lipoteichoic acid", "setting": "Staphylococcus aureus; Nod2 30 microgram/ml preincubated with 200 microgram/ml bacterial component", "value": "Neither S. aureus proteoglycan containing the MDP motif, nor lipoteichoic acid inhibited"}
    ]}
  ]
}
